Biological target: APNAnq 100 (100-kDa aminopeptidase N from Anopheles quadrimaculatus brush border membrane) (Anopheles quadrimaculatus)
Assay: SPR

Bacillus thuringiensis Cry11Ba toxin (trypsin-activated) (from UniProt Q45730 1-724) (natural protein)
koff: 1.03e-07 s⁻¹ | kon: 184 M⁻¹ s⁻¹

Source: publication PMC1533836
